Test results taken from paper doi:10.1101/2023.01.16.524289, “HuR modulation with tanshinone mimics impairs LPS response in murine macrophages”.

Molecular target: rM1M2 HuR (RRM1-RRM2) (UniProt Q15717 18-186)
Assay: HTRF; 20 nM protein, 50 nM probe; TM7nox inhibits with IC50 0.7956 uM (small-molecule IC50, not an affinity); REMSA: 30 min incubation, 4% native gel, buffer not given; HTRF: Cisbio protocol; pull-down: lysis in PEB (20 mM Tris-HCl pH 7.5, 100 mM KCl, 5 mM MgCl2, 0.5% NP-40), binding in TENT (20 mM Tris-HCl pH 8.0, 2 mM EDTA, 500 mM NaCl, 1% Triton X-100), 4 C
Details: protein: recombinant; tags: His-tag; label: 5'-biotin; single strand

Sequence of rM1M2 HuR (RRM1-RRM2) (Q15717 18-186): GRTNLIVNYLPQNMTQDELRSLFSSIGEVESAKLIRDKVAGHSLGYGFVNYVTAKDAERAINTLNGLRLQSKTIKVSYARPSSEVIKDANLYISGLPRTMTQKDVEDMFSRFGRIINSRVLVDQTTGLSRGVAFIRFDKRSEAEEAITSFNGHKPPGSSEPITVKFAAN

Binder: AUUAUUUAUUAUUUAUUUAUUAUUUA (ssRNA) [Bi-TNF ARE probe (26 nt)]
- binding result: binds
